From PMC12525004, “Bacillus subtilis DinG 3′⟶5′ Exo(ribo)nuclease: A Helpmate to Mitigate Replication Stress” (International Journal of Molecular Sciences, 2025) come the findings set out here.

Common to all, as to details: protein: recombinant; tags: none stated (pET3a, untagged); label: 5'-32P; single strand
Data set [1] addresses T1, DinG K290A (Bacillus subtilis, UniProt P54394 1-931, K290A).
T1 sequence: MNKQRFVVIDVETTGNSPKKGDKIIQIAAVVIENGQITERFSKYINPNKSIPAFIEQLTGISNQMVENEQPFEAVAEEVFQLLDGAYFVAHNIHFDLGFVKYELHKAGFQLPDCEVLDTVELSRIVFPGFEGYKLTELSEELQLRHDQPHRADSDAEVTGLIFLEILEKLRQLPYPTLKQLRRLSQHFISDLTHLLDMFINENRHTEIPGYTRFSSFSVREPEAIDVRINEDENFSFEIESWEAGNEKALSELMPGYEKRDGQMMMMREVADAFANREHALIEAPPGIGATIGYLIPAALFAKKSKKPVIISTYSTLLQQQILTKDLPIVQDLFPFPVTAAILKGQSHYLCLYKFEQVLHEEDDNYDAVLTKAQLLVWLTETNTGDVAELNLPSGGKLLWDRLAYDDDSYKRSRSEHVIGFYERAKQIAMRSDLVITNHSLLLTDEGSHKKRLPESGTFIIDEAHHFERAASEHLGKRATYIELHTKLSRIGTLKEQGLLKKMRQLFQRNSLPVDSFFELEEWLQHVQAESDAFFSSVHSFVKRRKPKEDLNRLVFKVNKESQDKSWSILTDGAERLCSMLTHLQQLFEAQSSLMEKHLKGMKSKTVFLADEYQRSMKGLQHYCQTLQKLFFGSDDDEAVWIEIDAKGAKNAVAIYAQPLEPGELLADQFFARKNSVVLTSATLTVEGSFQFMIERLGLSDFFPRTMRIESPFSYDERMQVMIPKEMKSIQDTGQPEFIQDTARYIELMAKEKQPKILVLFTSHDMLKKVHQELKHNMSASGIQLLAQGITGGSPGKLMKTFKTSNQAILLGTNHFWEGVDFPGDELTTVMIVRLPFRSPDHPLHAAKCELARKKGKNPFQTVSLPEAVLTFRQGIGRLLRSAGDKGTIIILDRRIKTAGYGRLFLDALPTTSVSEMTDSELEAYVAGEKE
The data set can be described thus: EMSA; 2 mM EDTA, no metal; Kapp; text names lssDNA38, Methods and Fig S4 legend give lssDNA45; EMSA, buffer D (composition not in material; 3 mM MgCl2, or 2 mM EDTA instead), 0.5 nM DNA, 37 °C, 10 min (text: 5 min), 15% native PAGE in TBE 1X; pH and salt. A general note: A gel shift assay detects complexes by their altered migration in electrophoresis.

In data set [2] the target is T2, DinG D10A E12A (Bacillus subtilis, UniProt P54394 1-931, D10A;E12A).
T2 sequence: T1 sequence with D10A, E12A, A290K
The data set is described as follows: EMSA; 2 mM EDTA, no metal; text names lssDNA38, Methods and Fig S4 legend give lssDNA45; EMSA, buffer D (composition not in material; 3 mM MgCl2, or 2 mM EDTA instead), 0.5 nM DNA, 37 °C, 10 min (text: 5 min), 15% native PAGE in TBE 1X; pH and salt.

Data set [3] deals with T2, DinG D10A E12A. The data set can be described thus: EMSA; 3 mM Mg2+; C1, C2 and well complexes; EMSA, buffer D (composition not in material; 3 mM MgCl2, or 2 mM EDTA instead), 0.5 nM DNA, 37 °C, 10 min (text: 5 min), 15% native PAGE in TBE 1X; pH and salt.

Numbering of substitutions follows the chain as printed.

B1: 3'-Biotin gamma32P-lssDNA45 (ssDNA)
DNA: GTACGTATTCAAGATACCTCGTACTCTGTACTGACTCGGATCCTA
modifications: biotin-T at position 44 (second from 3' end)
Regarding B1, in data set [1], the “apparent K (half saturation)” value was about 1.1 nM. The binding signal in data set [2] is ~2 fold lower affinity than its Mg2+-bound state; in data set [3], ~37 fold lower affinity than wt DinG.
